# Measured values published in US20170291930.
# How the values were obtained:
# [1] = tested on: T1, Hst-5 synthetic peptide K13L
# T1 sequence: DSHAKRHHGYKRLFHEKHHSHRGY
# [2] = tested on: T2, Hst-5 synthetic peptide K17L
# T2 sequence: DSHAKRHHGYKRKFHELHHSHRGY
# [3] = tested on: T3, Hst-5 synthetic peptide K17R
# T3 sequence: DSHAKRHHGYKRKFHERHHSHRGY
substance,measurement,setting,value
purified recombinant Sap9 (C. albicans secreted aspartic protease 9),cleavage site preference of Sap9 (mass spectrometry),[1],K13L showed an apparent shift in cleavage site preference compared to the parent Hst-5. The fragments containing amino acids 1-12 and 13-24 had higher signals for K13L than the fragments containing amino acids 1-17 and 18-24
same,cleavage at the C-terminal side of residue 17 by Sap9 (mass spectrometry),[2],"while the parent Hst-5 was cleaved on the C-terminal side of K17, neither K17R nor K17L showed significant cleavage at this site"
same,cleavage at the C-terminal side of residue 17 by Sap9 (mass spectrometry),[3],"while the parent Hst-5 was cleaved on the C-terminal side of K17, neither K17R nor K17L showed significant cleavage at this site"
